In general, Kd refers to the constant that tells how readily two partners part at equilibrium.

The values below come from article PMC2831308.

This series has as its system carboxyltransferase (CT) alpha2beta2, wild-type (Escherichia coli). The series can be described thus: EMSA. A general note: Mobility shift assays separate free from complexed probe on a gel.

Sequence “CT alpha transcript, 213 nt upstream of AUG to gene end” displayed a Kd of 145 nM.
